Results on 13 molecules are retold here after publication PMC5499549, “DNA substrate recognition and processing by the full-length human UPF1 helicase”.

Data set [1] concerns the target T1, hUPF1 (full-length) (Homo sapiens, UniProt Q92900-2 1-1118).
T1 sequence: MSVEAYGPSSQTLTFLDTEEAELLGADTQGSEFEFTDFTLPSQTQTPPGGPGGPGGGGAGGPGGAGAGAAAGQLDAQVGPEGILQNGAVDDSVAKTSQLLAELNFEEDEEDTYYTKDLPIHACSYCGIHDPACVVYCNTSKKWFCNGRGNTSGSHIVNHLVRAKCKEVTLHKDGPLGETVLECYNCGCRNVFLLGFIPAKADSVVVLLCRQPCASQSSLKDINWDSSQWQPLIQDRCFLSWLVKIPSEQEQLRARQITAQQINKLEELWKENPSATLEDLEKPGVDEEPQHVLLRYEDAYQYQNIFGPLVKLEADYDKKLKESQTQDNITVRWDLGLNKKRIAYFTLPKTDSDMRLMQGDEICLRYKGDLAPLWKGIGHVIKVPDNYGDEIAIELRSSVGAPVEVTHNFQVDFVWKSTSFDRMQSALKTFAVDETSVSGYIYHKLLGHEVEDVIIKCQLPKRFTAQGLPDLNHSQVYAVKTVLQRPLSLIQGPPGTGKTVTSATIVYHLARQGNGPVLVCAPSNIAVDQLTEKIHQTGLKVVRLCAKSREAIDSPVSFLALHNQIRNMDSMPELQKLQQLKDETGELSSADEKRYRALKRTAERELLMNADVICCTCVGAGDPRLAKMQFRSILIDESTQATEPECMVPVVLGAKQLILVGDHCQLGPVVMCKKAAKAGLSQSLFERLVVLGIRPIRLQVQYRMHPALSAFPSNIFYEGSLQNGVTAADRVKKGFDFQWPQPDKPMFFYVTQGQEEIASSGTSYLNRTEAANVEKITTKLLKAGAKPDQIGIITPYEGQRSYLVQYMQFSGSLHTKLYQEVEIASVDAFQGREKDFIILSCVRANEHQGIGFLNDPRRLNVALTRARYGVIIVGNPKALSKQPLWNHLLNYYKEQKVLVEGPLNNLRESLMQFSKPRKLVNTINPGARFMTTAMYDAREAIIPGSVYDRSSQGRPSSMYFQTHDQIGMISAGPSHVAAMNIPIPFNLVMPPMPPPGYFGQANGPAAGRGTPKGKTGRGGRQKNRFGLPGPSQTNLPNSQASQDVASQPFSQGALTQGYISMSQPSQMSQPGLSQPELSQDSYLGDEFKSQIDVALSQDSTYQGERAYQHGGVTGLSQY
In words: competition; vs 0.25 nM 32P-DNA35, 10 nM hUPF1; 25 mM HEPES-NaOH pH 7.2, 135 mM NaCl, 2 mM DTT, 1 mg/ml acetylated BSA, 0.1% NP40, 20 min; EMSA 20 C, MST 22 C (20 nM DNA); no nucleotide cofactor or Mg2+ unles. Conditions: protein: recombinant, tags: GST and His tags removed (thrombin, TEV), residual ENLYFQ linker likely at C-terminus. (In general: A gel shift assay detects complexes by their altered migration in electrophoresis.)

Data set [2] addresses T1, hUPF1 (full-length). Put plainly: MST; fit up to 313 nM hUPF1; 25 mM HEPES-NaOH pH 7.2, 135 mM NaCl, 2 mM DTT, 1 mg/ml acetylated BSA, 0.1% NP40, 20 min; EMSA 20 C, MST 22 C (20 nM DNA); no nucleotide cofactor or Mg2+ unles. The settings on record: protein: recombinant; tags: GST and His tags removed (thrombin, TEV); residual ENLYFQ linker likely at C-terminus; label: 5' Alexa 647.

The target in data set [3] is T1, hUPF1 (full-length). In words: EMSA; no nucleotide cofactor; 25 mM HEPES-NaOH pH 7.2, 135 mM NaCl, 2 mM DTT, 1 mg/ml acetylated BSA, 0.1% NP40, 20 min; EMSA 20 C, MST 22 C (20 nM DNA); no nucleotide cofactor or Mg2+ unles. Conditions: protein: recombinant; tags: GST and His tags removed (thrombin, TEV); residual ENLYFQ linker likely at C-terminus; label: 5' 32P (EMSA).

Data set [4] deals with T1, hUPF1 (full-length). Put plainly: EMSA; 25 mM HEPES-NaOH pH 7.2, 135 mM NaCl, 2 mM DTT, 1 mg/ml acetylated BSA, 0.1% NP40, 20 min; EMSA 20 C, MST 22 C (20 nM DNA); no nucleotide cofactor or Mg2+ unles. The settings on record: protein: recombinant; tags: GST and His tags removed (thrombin, TEV); residual ENLYFQ linker likely at C-terminus; label: 5' 32P (EMSA).
For data set [5], the target named is T1, hUPF1 (full-length). Put plainly: MST; second experimental group; fit up to 156 nM; 25 mM HEPES-NaOH pH 7.2, 135 mM NaCl, 2 mM DTT, 1 mg/ml acetylated BSA, 0.1% NP40, 20 min; EMSA 20 C, MST 22 C (20 nM DNA); no nucleotide cofactor or Mg2+ unles. The settings on record: protein: recombinant; tags: GST and His tags removed (thrombin, TEV); residual ENLYFQ linker likely at C-terminus; label: 5' Alexa 647.

The target in data set [6] is T1, hUPF1 (full-length). In words: MST; fit up to 156 nM hUPF1; 25 mM HEPES-NaOH pH 7.2, 135 mM NaCl, 2 mM DTT, 1 mg/ml acetylated BSA, 0.1% NP40, 20 min; EMSA 20 C, MST 22 C (20 nM DNA); no nucleotide cofactor or Mg2+ unles. The settings on record: protein: recombinant; tags: GST and His tags removed (thrombin, TEV); residual ENLYFQ linker likely at C-terminus; label: 5' Alexa 647.

Data set [7] has as its target T1, hUPF1 (full-length). Put plainly: EMSA; most or all bound at top concentrations; multimerization; 25 mM HEPES-NaOH pH 7.2, 135 mM NaCl, 2 mM DTT, 1 mg/ml acetylated BSA, 0.1% NP40, 20 min; EMSA 20 C, MST 22 C (20 nM DNA); no nucleotide cofactor or Mg2+ unles. The settings on record: protein: recombinant; tags: GST and His tags removed (thrombin, TEV); residual ENLYFQ linker likely at C-terminus; label: 32P.

Data set [8] addresses T1, hUPF1 (full-length). In words: EMSA; 25 mM HEPES-NaOH pH 7.2, 135 mM NaCl, 2 mM DTT, 1 mg/ml acetylated BSA, 0.1% NP40, 20 min; EMSA 20 C, MST 22 C (20 nM DNA); no nucleotide cofactor or Mg2+ unles. The settings on record: protein: recombinant; tags: GST and His tags removed (thrombin, TEV); residual ENLYFQ linker likely at C-terminus; label: 32P (EMSA).
Data set [9] addresses T1, hUPF1 (full-length). In words: MST; biphasic, low-amplitude first phase; 25 mM HEPES-NaOH pH 7.2, 135 mM NaCl, 2 mM DTT, 1 mg/ml acetylated BSA, 0.1% NP40, 20 min; EMSA 20 C, MST 22 C (20 nM DNA); no nucleotide cofactor or Mg2+ unles. Conditions: protein: recombinant; tags: GST and His tags removed (thrombin, TEV); residual ENLYFQ linker likely at C-terminus; label: 5' Alexa 647.

The target in data set [10] is T1, hUPF1 (full-length). In words: EMSA; equivalent to G4 ss precursor; 25 mM HEPES-NaOH pH 7.2, 135 mM NaCl, 2 mM DTT, 1 mg/ml acetylated BSA, 0.1% NP40, 20 min; EMSA 20 C, MST 22 C (20 nM DNA); no nucleotide cofactor or Mg2+ unles. Conditions: protein: recombinant; tags: GST and His tags removed (thrombin, TEV); residual ENLYFQ linker likely at C-terminus; label: 32P.

Data set [11] deals with T1, hUPF1 (full-length). In words: MST; 25 mM HEPES-NaOH pH 7.2, 135 mM NaCl, 2 mM DTT, 1 mg/ml acetylated BSA, 0.1% NP40, 20 min; EMSA 20 C, MST 22 C (20 nM DNA); no nucleotide cofactor or Mg2+ unles. The settings on record: protein: recombinant; tags: GST and His tags removed (thrombin, TEV); residual ENLYFQ linker likely at C-terminus; label: 5' Alexa 647.

B1: RNA35 (ssRNA)
RNA: CACAAGCAACCAAUCGGUUCGACACUCAUACUGGC
As usually defined, the IC50 is the midpoint of a concentration-inhibition curve. B1: the IC50 in data set [1] (label: 32P (EMSA)) came to 50.4 nM.

B2: d(T)25-Alexa647 (ssDNA)
DNA: TTTTTTTTTTTTTTTTTTTTTTTTT
The term Kd denotes a measure of binding affinity in units of concentration. With B2, in data set [2], the Kd stood at 5.98 ± 0.51 nM.

B3: d(T)35 (ssDNA)
DNA: TTTTTTTTTTTTTTTTTTTTTTTTTTTTTTTTTTT
Turning to B3, the dissociation constant Kd in [3] is approximately 1 nM. For the same molecule, the binding signal in data set [4] was ~2 fold higher affinity than (U)35. For the same molecule, the IC50 in data set [1] (label: 5' 32P (EMSA)) was 11.5 nM.

B4: d(T)35-Alexa647 (ssDNA)
DNA: B3 DNA
As for B4, the Kd in data set [5] was found to be 6.01 ± 0.85 nM; in data set [6], 4.05 ± 0.58 nM.

B5: d(T)45 (ssDNA)
DNA: TTTTTTTTTTTTTTTTTTTTTTTTTTTTTTTTTTTTTTTTTTTTT
Take B5: the binding result in [7] was “binds”.

B6: DNA35 (ssDNA)
DNA: CACAAGCAACCAATCGGTTCGACACTCATACTGGC
For B6, the binding signal in [4] is ~3 fold higher affinity than RNA35. Further, in [1] (label: 5' 32P (EMSA)), the IC50 worked out at 31.5 nM.

B7: DNA35-Alexa647 (ssDNA)
DNA: B6 DNA
For B7, the Kd in [6] stood at 9.8 ± 1 nM.

B8: d(T)55 (ssDNA)
DNA: TTTTTTTTTTTTTTTTTTTTTTTTTTTTTTTTTTTTTTTTTTTTTTTTTTTTTTT
Take B8: the binding result in data set [7] is listed as “binds”.

B9: (U)35 (ssRNA)
RNA: UUUUUUUUUUUUUUUUUUUUUUUUUUUUUUUUUUU
For B9, the half-maximal inhibitory concentration (IC50) in data set [1] (label: 32P (EMSA)) was determined as 12.3 nM.

B10: (A)35 (ssRNA)
RNA: AAAAAAAAAAAAAAAAAAAAAAAAAAAAAAAAAAA
On to B10, for which, in data set [8], the binding signal is ~5 fold higher affinity than (C)35. Moreover, in [1] (label: 32P (EMSA)), the IC50 stood at 172 nM.

B11: d(A)35-Alexa647 (ssDNA)
DNA: B10 RNA
As for B11, the dissociation constant Kd in data set [9] came out at 4.2 ± 3.73 µM.

B12: d(T)18 (ssDNA)
DNA: TTTTTTTTTTTTTTTTTT
On to B12, for which the binding result in data set [10] is “binds”.

B13: d(T)15-Alexa647 (ssDNA)
DNA: TTTTTTTTTTTTTTT
For the molecule B13, the Kd in data set [11] was 39.4 ± 3.6 nM.
